In patent publication US20260258137A1 one finds MFI maximum value and Maximum inhibition rate (%) data, which are given here for one substance.

The target in assay [1] is cynomolgus PD-L1 on CHO-K1 cells (CHO-K1/cynoPD-L1, Nanjing Genscript, M00573) (cynomolgus) (UniProt G7PSE7). The experiment in a line: flow cytometry on CHO-K1/cynoPD-L1 cells.
Assay [2] addresses human PD-L1 on CHO-K1 cells (CHO-K1/hPD-L1, Nanjing Genscript, M00543) (human) (UniProt Q9NZQ7). The assay can be described thus: flow cytometry on CHO-K1/hPD-L1 cells. (Flow cytometry measures light scatter and fluorescence of single cells or particles in a stream.)
The target is the same in assay [3]. The experiment in a line: flow cytometry competition: biotin-hPD-1 binding to CHO-K1/hPD-L1 cells.

Sequence of human PD-L1 on CHO-K1 cells (CHO-K1/hPD-L1, Nanjing Genscript, M00543) (human) (Q9NZQ7 19-290, one chain of several): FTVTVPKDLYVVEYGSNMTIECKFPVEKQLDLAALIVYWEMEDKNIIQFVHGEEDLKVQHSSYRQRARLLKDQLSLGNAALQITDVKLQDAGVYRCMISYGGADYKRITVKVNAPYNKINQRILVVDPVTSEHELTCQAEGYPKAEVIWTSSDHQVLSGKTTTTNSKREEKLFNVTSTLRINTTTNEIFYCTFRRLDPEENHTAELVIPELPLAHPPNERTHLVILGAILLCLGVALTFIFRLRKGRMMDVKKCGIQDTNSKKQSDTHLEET
Sequence of cynomolgus PD-L1 on CHO-K1 cells (CHO-K1/cynoPD-L1, Nanjing Genscript, M00573) (cynomolgus) (G7PSE7 entry or part of it limits assumed, one chain of several): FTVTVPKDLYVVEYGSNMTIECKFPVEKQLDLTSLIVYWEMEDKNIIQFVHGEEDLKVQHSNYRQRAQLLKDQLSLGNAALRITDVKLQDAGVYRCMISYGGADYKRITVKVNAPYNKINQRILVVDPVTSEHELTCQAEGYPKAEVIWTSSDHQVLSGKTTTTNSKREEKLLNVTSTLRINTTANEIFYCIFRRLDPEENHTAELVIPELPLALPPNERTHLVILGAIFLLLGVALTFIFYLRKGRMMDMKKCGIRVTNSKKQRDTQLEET

Turning to isotype antibody hIgG1 iso, the MFI maximum value worked out at 935 MFI in assay [1] and 305 MFI in assay [2]. The substance further registered a Maximum inhibition rate (%) in assay [3] of 0.68%.
